The source of these data is article PMC9278863, “The two-domain elevator-type mechanism of zinc-transporting ZIP proteins” (Science Advances, 2022).

This data set deals with the molecule itself. Description: crystal structure; metal-free BbZIP crystallised in lipidic cubic phase (monoolein), 100 mM NaOAc-HOAc pH 4.5, LiSO4, PEG400, 20°C; two molecules in the asymmetric unit; parallel dimers seen in the crystal packing.

B1: ZIP from Bordetella bronchiseptica (BbZIP), wild type (natural protein, UniProt A0A0H3LM39 1-309, looked up)
chain: MNQPSSLAADLRGAWHAQAQSHPLITLGLAASAAGVVLLLVAGIVNALTGENRVHVGYAVLGGAAGFAATALGALMALGLRAISARTQDAMLGFAAGMMLAASAFSLILPGLDAAGTIVGPGPAAAAVVALGLGLGVLLMLGLDYFTPHEHERTGHQGPEAARVNRVWLFVLTIILHNLPEGMAIGVSFATGDLRIGLPLTSAIAIQDVPEGLAVALALRAVGLPIGRAVLVAVASGLMEPLGALVGVGISSGFALAYPISMGLAAGAMIFVVSHEVIPETHRNGHETTATVGLMAGFALMMFLDTALG
notes: density seen for residues 21-145, 165-279, 285-309 (chain A) and 18-77, 84-145, 166-219, 225-307 (chain B) of the metal-free structure; also called Zrt/Irt-like protein; WT; source: E. coli C43(DE3), purified (DDM solubilisation, HisTrap IMAC, SEC)
Turning to B1, the binding result is given as “binds”.
